In patent US20200399341A1 (Hoffmann-La Roche, published 2020):

Target: T1, Recombinant human VEGF R2 (R&D Systems, #357-KD) (human, UniProt P35968 20-764)
T1 construct: Immobilized by amine coupling on a CM5 chip (approx. 9,500 RU)
Assay: SPR (BIAcore T200): VEGF-A-121 (10 nM, pre-incubated with COMP-anti-VEGF-Fab) injected over amine-coupled VEGF R2
Method: Binding was investigated by surface plasmon resonance using a BIAcore T200 instrument (GE Healthcare). All experiments were performed at 25° C. using HBS-P (10 mM HEPES, 140 mM NaCl, 0.05% PS20, pH 7.4) as running and dilution buffer. Recombinant human VEGF R2 (R&D Systems, #357-KD) was immobilized on a Series S CM5 Sensor Chip (GE Healthcare) using standard amine coupling chemistry resulting a surface density of approx. 9,500 RU. […] Subsequently the surface was regenerated by injecting 10 mM Glycine solution (pH 2.0) for 60 sec., followed by 5 mM NaOH for 60 sec. at a flow rate of 5 μl/min. Bulk refractive index differences were corrected by subtracting the response obtained from a mock surface. Blank injections were subtracted (double referencing). The derived binding signals (resonance units RU) were plotted against the antibody concentrations to calculate IC₅₀ values.

T1 sequence (P35968 20-764 limits assumed): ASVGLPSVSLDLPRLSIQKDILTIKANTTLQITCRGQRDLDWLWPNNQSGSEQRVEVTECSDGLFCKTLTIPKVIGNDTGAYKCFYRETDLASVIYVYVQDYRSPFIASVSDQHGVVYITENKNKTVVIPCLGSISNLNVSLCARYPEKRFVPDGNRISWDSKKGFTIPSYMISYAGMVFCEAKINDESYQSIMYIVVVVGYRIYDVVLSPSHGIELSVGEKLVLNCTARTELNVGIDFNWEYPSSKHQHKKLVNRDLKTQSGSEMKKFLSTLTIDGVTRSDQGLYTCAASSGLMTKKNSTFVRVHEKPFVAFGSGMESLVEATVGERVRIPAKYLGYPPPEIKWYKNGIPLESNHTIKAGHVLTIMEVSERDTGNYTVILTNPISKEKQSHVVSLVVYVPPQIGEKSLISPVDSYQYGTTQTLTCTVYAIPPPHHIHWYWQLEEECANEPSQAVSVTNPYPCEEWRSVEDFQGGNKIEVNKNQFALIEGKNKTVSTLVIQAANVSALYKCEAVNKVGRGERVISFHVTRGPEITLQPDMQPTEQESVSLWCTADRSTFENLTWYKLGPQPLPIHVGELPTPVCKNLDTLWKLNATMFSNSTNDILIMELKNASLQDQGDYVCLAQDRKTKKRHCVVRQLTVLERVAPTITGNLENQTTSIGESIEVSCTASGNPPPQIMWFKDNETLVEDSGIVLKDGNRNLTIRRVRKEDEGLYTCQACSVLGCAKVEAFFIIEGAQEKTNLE

B1: VEGF-A-121 (ligand, UniProt P15692-9 27-147, looked up)
chain: APMAEGGGQNHHEVVKFMDVYQRSYCHPIETLVDIFQEYPDEIEYIFKPSCVPLMRCGGCCNDEGLECVPTEESNITMQIMRIKPHQGQHIGEMSFLQHNKCECRPKKDRARQEKCDKPRR
notes: Used at 10 nM in solution, pre-incubated with the antibody molecules
- binding result: binds
